The record followed here is the RNAGym collection of RNA variant scans (doi:10.7554/elife.80360).

B1: Hairpin Ribozyme (parent)
chain: GUCCUCUUUCACGUGCGCGUGAAAGAGAGAAGUGAACCAGAGAAACACACGUUGUGGUAUAUUACCUGGUA

Variants of B1 are the subject of the data set. The experiment in a line: self-cleavage, relative activity (ratio to wild type); higher = more cleavage; co-transcriptional.
With C6A G69A, the self-cleavage was 0.23.
With G27U G54A the figure was 0.26; with G21C A22C, 0.61; with G19A A47G, 0.183.
As for U52A U60G, the self-cleavage turned out to be 0.54.
To G17A U53G belongs 0.932.
With U2G G40C the figure was 0.126; with A47G U60A, 0.139; with G25U A28U, 0.509.
To G19U A64C belongs 0.162; to G13U A26G, 0.675.
As for A30U C66G, the self-cleavage worked out at 0.165.
With U60A U70G the figure was 0.553; with C10G U55C, 0.16; with G17A A64U, 0.151.
Take A22G G54A: the self-cleavage came to 0.428.
To A22U A24G belongs 0.76; to G42A G57A, 0.14; to G25C A43U, 0.243.
On to G19A G68U, for which the self-cleavage was 0.242.
Turning to G1U A71G, the self-cleavage is 0.115.
To U8A C37G belongs 0.241; to G13C G15U, 0.695; to A45C G57U, 0.249.
To C16A A44U belongs 0.133; to U8C G56U, 0.167; to A30C G56C, 0.0453.
For the variant A44C C46U, the self-cleavage is 0.238.
To C16G A43U belongs 0.157.
To G17C G29A belongs 0.12.
With A22C G34A the figure was 1.04; with U60G A71U, 0.395; with A22U A28G, 1.13.
Take U9A G34A: the self-cleavage stood at 0.905.
With A36U U60A the figure was 0.487; with U7C G13A, 0.615.
To U5C G13U belongs 0.579; to A30U G34C, 0.42.
To C16A A22U belongs 0.816; to G1A A11U, 0.302; to G13U A41C, 0.91.
In the case of C10U U33G, the self-cleavage came out at 0.196.
To A61U A64U belongs 0.3.
With U7G U55C the figure was 0.152.
To G17A A49G belongs 0.62.
With C46G C66U, the self-cleavage was found to be 0.215.
With A45C U67C the figure was 0.128; with G54U U60C, 0.834; with G1C A35U, 0.254.
As to A44G U60G, the self-cleavage came out at 0.0699.
To C16U C18U belongs 0.979.
With G15C C18A the figure was 1.18.
With U33A A61C the figure was 0.127.
C37G G42C: the self-cleavage was determined as 0.152.
Turning to U5G C12A, the self-cleavage was 0.124.
With G29A A31G the figure was 0.145.
On to A22C G40U, for which the self-cleavage is 0.19.
To C10G A47G belongs 0.177.
In the case of U8C A64U, the self-cleavage was determined as 0.104.
As to U20C C48U, the self-cleavage turned out to be 0.175.
With U20C C48G the figure was 0.104; with G15A A23G, 0.862.
For the variant G21A U52C, the self-cleavage came to 0.817.
With A45G C65A the figure was 0.349; with G1U G69C, 0.0943; with A30U C38G, 0.108.
To A61C G69U belongs 0.145; to C6U G29A, 0.158; to C12G U52A, 0.922.
To A43C U70G belongs 0.12; to A45C C46G, 0.152.
In the case of G56C U63A, the self-cleavage amounted to 0.0712.
With C10A C37A the figure was 0.271; with A59C C65A, 0.0683.
To G1C C12U belongs 0.213; to A26G A64C, 0.303; to A31G G51A, 0.927.
With G40U U53G the figure was 0.151; with G32C U70C, 0.234; with G34A A59U, 0.203.
On to C4G A23G, for which the self-cleavage was determined as 0.25.
With A36G U60C the figure was 1.1.
Regarding A11C G32C, the self-cleavage was 0.0648.
U9A A31C: the self-cleavage amounted to 0.158.
To A39G U55C belongs 0.119.
To U2C A71U belongs 0.2.
To G32U C46A belongs 0.272.
With C4G U8G, the self-cleavage was 0.0927.
In the case of A41U U55G, the self-cleavage came to 0.485.
To A45G U52A belongs 0.0852; to G42U U60G, 0.218; to U2C U52A, 0.287.
To C50U U62A belongs 0.185; to U20G U58A, 0.501.
For the variant C12A A31U, the self-cleavage is 0.104.
With G29A C50A the figure was 0.168.
To C12U A39G belongs 0.297; to G25C C66A, 0.133.
With C6A G29C the figure was 0.123; with U20A G51C, 0.846; with G27U G57U, 0.144.
As for C12U C37A, the self-cleavage was 0.282.
With A44C G56A the figure was 0.152; with C38G A41U, 0.358; with A30G C37G, 0.0733.
To U14A C65U belongs 0.292.
To G29C C37A belongs 0.14.
Consider G34C U63C, for which the self-cleavage stood at 0.506.
To C4U G51C belongs 0.337.
To G15U C66U belongs 0.574.
To A36G C37G belongs 0.287; to C46G U63C, 0.103.
Turning to C3A A22G, the self-cleavage amounted to 0.706.
To U14C A61U belongs 0.293; to U8C U60C, 1.23.
With U63A C66G the figure was 0.0954; with C38U A41G, 0.648.
To C4G U5C belongs 0.112; to C46A A61C, 0.311.
Consider A28U U55A, for which the self-cleavage came to 0.235.
To C6A U63A belongs 0.144; to U2G A41G, 0.38.
To C6U C37A belongs 0.286.
To A35C A49G belongs 0.341.
In the case of A28C A64U, the self-cleavage turned out to be 0.237.
Take A28C A64C: the self-cleavage stood at 0.245.
To A22U G68A belongs 0.389.
With C18G the figure was 0.931; with U58G U70A, 0.849; with C12U A44C, 0.184.
Turning to A11U G34A, the self-cleavage turned out to be 1.13.
To A35U U63A belongs 0.227; to A26G G40U, 0.128.
In the case of A11U G21U, the self-cleavage worked out at 0.915.
To C3A U60A belongs 0.515; to A24U A59U, 0.185; to G68A A71U, 0.15.
With G40U G42U the figure was 0.116; with C12U G42A, 0.149; with G34A G40C, 0.174.
To G13A A35C belongs 0.739; to C10U C66A, 0.183; to C6G C16G, 0.423.
On to A43U U60A, for which the self-cleavage is 0.255.
With U7C A44G, the self-cleavage stood at 0.0315.
With C38G G69C the figure was 0.241; with U8G U62C, 0.332.
As to G34A U55G, the self-cleavage stood at 0.541.
To G57U U63C belongs 0.146; to G29U C37U, 0.192; to A30U A44G, 0.064.
With U52A U63A, the self-cleavage was 0.424.
With U8C A44C the figure was 0.131; with C46U U55C, 0.0817; with C4A G19C, 0.143.
With G15A A71G the figure was 0.943.
On to C4U A64C, for which the self-cleavage was 0.181.
With A24G A35C the figure was 0.82; with G32U U33C, 0.222; with G34U A59G, 0.23.
With U7G A59G the figure was 0.0757.
Take C6G A41C: the self-cleavage came to 0.552.
To G13C G21A belongs 0.61; to U60C G69C, 0.326.
To A30U A41U belongs 0.232; to G17C G57U, 0.222.
To C18U G29U belongs 0.172; to A30C C66A, 0.0863.
On to A30G G68A, for which the self-cleavage was determined as 0.0362.
To U5A U62C belongs 0.224; to A36U A43G, 0.138.
With G19U U63A the figure was 0.166.
With A23C C50G the figure was 0.259; with G56U U60G, 0.231; with U5G G27A, 0.216.
As to C6A G25U, the self-cleavage is 0.763.
With C12G A61C the figure was 0.24.
Turning to C65U G68C, the self-cleavage amounted to 0.108.
To C12A G29U belongs 0.201; to A24C U63C, 0.184.
With G1U A41C the figure was 0.0514; with A43G C48U, 0.123.
With U14A G56U the figure was 0.205; with A35G A47U, 0.178; with G27A C65G, 0.161.
On to G34U U52G, for which the self-cleavage is 0.896.
Take A49U U63A: the self-cleavage stood at 0.183.
With A23U A41C the figure was 0.798; with C10G G19A, 0.64; with U2C C37U, 0.113.
Regarding A41C C46G, the self-cleavage is 0.117.
On to G25C U62A, for which the self-cleavage stood at 0.188.
With C10G the figure was 0.737; with U52A U55A, 0.33.
With A39C A49U, the self-cleavage came out at 0.12.
With G42C U53A the figure was 0.332.
With C50G U58G the figure was 0.147.
